One series in a line: Congo red fluorescence. It is filed as physicochemical. On the procedure: Background signals from buffer, buffer with Congo red and protein/peptide solution without Congo red were subtracted from corresponding measurements with protein solution incubated with Congo red. Fluorescence was measured in triplicate on a Hitachi F-4500 fluorescence spectrophotometer (Ltd., Tokyo, Japan).
(§1) Formulated protein therapeutics were obtained from the local hospital pharmacy and were used as supplied by the manufacturers. […] Lyophilized therapeutics were dissolved according to the manufacturers recommendations. […] Other protein therapeutics were only kept at 4° C., and assayed for the presence of cross-β structure conformation at shown time points. Enhancement in fluorescence of ThT and Congo red was measured with all formulated protein therapeutics. For this purpose, proteins were diluted to the indicated concentrations. […] Zinc-insulin was diluted tenfold in the activation assay, GH was diluted to a final concentration of 500 μg ml^−1. Activation of factor XII and prekallikrein by the therapeutics was tested in the chromogenic factor XII assay (see above). […] After coating, plates were blocked with Blocking Reagent (Roche Diagnostics, Almere, The Netherlands).
(§2) Protein therapeutics were obtained from the local hospital pharmacy and analyzed within the expiry limits as stated by the manufacturers.

A further series addresses T1, factor XII (Homo sapiens, UniProt P00748).
T1 construct: purchased Calbiochem, EMD Biosciences #233490
T1 sequence (P00748 20-615): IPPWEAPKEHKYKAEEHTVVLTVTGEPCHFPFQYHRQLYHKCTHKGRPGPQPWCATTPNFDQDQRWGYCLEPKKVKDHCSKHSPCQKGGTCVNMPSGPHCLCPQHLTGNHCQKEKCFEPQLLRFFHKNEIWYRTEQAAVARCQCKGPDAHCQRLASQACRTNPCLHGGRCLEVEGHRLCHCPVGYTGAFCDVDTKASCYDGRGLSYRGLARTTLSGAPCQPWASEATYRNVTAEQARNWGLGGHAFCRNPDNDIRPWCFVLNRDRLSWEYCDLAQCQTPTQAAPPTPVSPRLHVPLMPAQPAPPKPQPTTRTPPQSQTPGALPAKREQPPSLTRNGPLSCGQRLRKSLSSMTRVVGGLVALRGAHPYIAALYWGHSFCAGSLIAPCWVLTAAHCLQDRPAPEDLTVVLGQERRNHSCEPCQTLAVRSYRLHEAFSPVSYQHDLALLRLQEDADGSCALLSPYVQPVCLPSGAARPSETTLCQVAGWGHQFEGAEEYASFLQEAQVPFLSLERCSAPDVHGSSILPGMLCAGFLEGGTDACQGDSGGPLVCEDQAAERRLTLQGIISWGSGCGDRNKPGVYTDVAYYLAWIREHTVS
The series is described as follows: Chromogenic factor XII/prekallikrein activation assay (Chromozym-PK). It is filed as biochemical. As to the method: (§3) Plasmin (Pls) activity was assayed as described^7. Peptides and proteins that were tested for their stimulatory ability were regularly used at 100 μg ml^−1. […] Chromogenic substrate S-2251 (Chromogenix, Instrumentation Laboratory SpA, Milano, Italy) was used to measure Pls activity. Conversion of zymogen factor XII (#233490, Calbiochem, EMD Biosciences, Inc., San Diego, Calif.) to proteolytically active factor XII (factor XIIa) was assayed by measurement of the conversion of chromogenic substrate Chromozym-PK (Roche Diagnostics, Almere, The Netherlands) by kallikrein. Chromozym-PK was used at a concentration of 0.3 mM. Factor XII, human plasma prekallikrein (#529583, Calbiochem) and human plasma cofactor high-molecular weight kininogen (#422686, Calbiochem) were used at concentrations of 1 μg ml^−1. […] Assays were performed using microtiter plates (Costar, Cambridge, Mass., USA). Peptides and proteins were tested for their ability to activate factor XII. 150 μg ml^−1 kaolin, an established activator of factor XII was used as positive control and solvent (H2O) as negative control. The conversion of Chromozym-PK was recorded kinetically at 37° C. for at least 60 minutes. Assays were done in duplicate. […] Alternatively, chromogenic substrate S-2222 (Chromogenix) was used to follow the activity of factor XII itself. With S-2222, activation of factor XII in plasma was measured, using 60% v/v plasma, diluted with substrate and H2O with or without potential cofactor. Furthermore, auto-activation of factor XII was measured by incubating 53 μg ml^−1 purified factor XII in 50 mM Tris-HCl buffer pH 7.5 with 1 mM EDTA and 0.001% v/v Triton-X100, with S-2222 and H2O with or without potential cofactor.
as §1

For series [1], the target named is T2, tPA (Homo sapiens, UniProt P00750).
T2 construct: purchased Boehringer-Ingelheim (Actilyse, Alteplase)
The series can be described thus: tPA ELISA with coated protein therapeutics. In kind it is binding. The settings on record: 5 μg ml^−1 coated, stored at 4° C. On the procedure:
as §1

The target of series [2] is T2, tPA. The series can be described thus: tPA/plasminogen activation assay (400 pM tPA). The settings on record: % of standardized positive control (denatured γ-globulins 100 μg/ml); 1:10 diluted samples. It is filed as biochemical. As to the method: β2-GPI was reduced and alkylated as follows. Six hundred forty μl of β2-GPI stock was mixed with 640 μl of 8 M Urea (cooled solution) in 0.1 M Tris pH=8.2. The solution was degassed with N2 gas for approximately 6 minutes. From a 1 M DTT stock 12.8 μl was added to the solution, mixed and incubated for 3 hours at room temperature. A 1 M Iodoacetamide (Sigma; 1-6125) was prepared, of which 25.6 μl was added to the β2-GPI reaction mixture. The solution was subsequently dialysed against PBS. […] Signals obtained with alkyl-62gpi are compared with those obtained with native β2gpi starting material.
Exiqon Peptide Immobilizer plates were blocked for 1 hour with PBS, 1% Tween20 and rinsed twice with distilled water. The conversion of the chromogenic substrate S-2251 (Chromogenix, Italy) by plasmin was kinetically measured at 37° C. on a Spectramax340 microplate reader at a wavelength of 405 nm. […] Denatured γ-globulins (100 μg/ml) with amyloid-like structure was used as reference and positive control. Lyophilized γ-globulins (Sigma, MO, USA) were dissolved in a 1(:)1 volume ratio of 1,1,1,3,3,3-hexafluoro-2-propanol and trifluoro-acetic acid and subsequently dried under air. Dried γ-globulins was dissolved in H2O to a final concentration of 1 mg/ml and kept at room temperature for at least three days and subsequently stored at −20° C.
as §2

A short description of series [3]: Stability testing of biopharmaceuticals under denaturing conditions (ThT fluorescence, tPA activation). The following applies: ThT at 25 μg/mL, tPA activation at 100 μg/mL. In kind it is physicochemical. On the procedure:
To mimic accelerated stability testing several therapeutics were exposed to denaturing conditions and assayed for amyloid-like properties before and after treatment by tPA activation assay at 100 μg/mL protein and ThT fluorescence enhancement assay at 25 μg/mL protein. For this purpose, 5 mg/mL Glucagon (Glucagen; Novo Nordisk Farma B.V., Alphen aan de Rijn, The Netherlands) was incubated at 37° C. in 0.01 M HCl for 48 hours. One mg/mL Etanercept (Enbrel; Wyeth Pharmaceuticals B.V., Hoofddorp, The Netherlands) in 67 mM sodium phosphate buffer, 100 mM NaCl pH 7.0 was gradually heated from 30° C. to 85° C. over a period of 12 minutes and afterwards cooled to 4° C. for 5 minutes, this treatment was repeated 4 times. Abciximab (Reopro; Centocor B.V., Leiden, The Netherlands) and Infliximab (Remicade; Schering-Plough B.V., Utrecht, The Netherlands) were incubated at 65° C. for 16 and 72 hours, respectively.

The nature of series [4]: Thioflavin T fluorescence. In kind it is physicochemical. The settings on record: for Fluorescence (a.u. +/− SD) ThT: marketed biopharmaceutical within expiry limits, five μL tested. On the procedure: Fluorescence of ThT-protein/peptide adducts was measured as follows. […] Fluorescence was measured at 485 nm upon excitation at 435 nm. Background signals from buffer, buffer with ThT and protein/peptide solution without ThT were subtracted from corresponding measurements with protein solution incubated with ThT. […] Fluorescence was measured in triplicate on a Hitachi F-4500 fluorescence spectrophotometer (Ltd., Tokyo, Japan).
as §1
To prepare structurally altered ovalbumin (OVA) with amyloid cross-β structure conformation, purified OVA (Sigma, A-7641, lot 071k7094) was heated to 85° C. One mg ml^−1 OVA in 67 mM NaPi buffer pH 7.0, 100 mM NaCl, was heated for two cycles in PCR cups in a PTC-200 thermal cycler (MJ Research, Inc., Waltham, Mass., USA). In each cycle, OVA was heated from 30 to 85° C. at a rate of 5° C./min. Native OVA (nOVA) and heat-denatured OVA (dOVA) were tested in the ThT fluorescence assay and in the Plg-activation assay. In the fluorescence assay and in the Plg-activation assay, 25 and 100 μg ml^−1 nOVA and dOVA were tested, respectively. TEM images of nOVA and dOVA were taken to check for the presence of large aggregates. […] MSA (#126674, Calbiochem) was dissolved in 8 M urea, 100 mM Tris-HCl pH 8.2, at 10 mg ml^−1 final concentration. Dithiothreitol (DTT) was added to a final concentration of 10 mM. Air was replaced by N2 and the solution was incubated for 2 h at room temperature. Then, the solution was transferred to ice and iodoacetamide was added from a 1 M stock to a final concentration of 20 mM. […] Alkyl-MSA was dialyzed against H2O before use. […] In the ThT-fluorescence assay 25 μg ml^−1 nMSA and alkyl-MSA were tested, and in the Plg-activation assay 100 μg ml^−1 was tested. The presence of aggregates or fibrils was analyzed using TEM. […]
as §2

In series [5] the target is T2, tPA. The series is described as follows: Plasminogen-activation assay (tPA-mediated Plg to Pls, S-2251). In kind it is biochemical. The settings on record: FIG. 6E, G. As to the method:
as §3, §1
Purification of β2-glycoprotein I (β2GPI) was performed according to established methods^11,12. Recombinant human β2GPI was made using insect cells and purified as described^11. Plasma derived β2GPI as used in a factor XII ELISA, the chromogenic Plg-activation assay and in the anti-phospholipid syndrome antibody ELISA (see below), was purified from fresh human plasma as described^12.
To prepare structurally altered ovalbumin (OVA) with amyloid cross-β structure conformation, purified OVA (Sigma, A-7641, lot 071k7094) was heated to 85° C. One mg ml^−1 OVA in 67 mM NaPi buffer pH 7.0, 100 mM NaCl, was heated for two cycles in PCR cups in a PTC-200 thermal cycler (MJ Research, Inc., Waltham, Mass., USA). In each cycle, OVA was heated from 30 to 85° C. at a rate of 5° C./min. Native OVA (nOVA) and heat-denatured OVA (dOVA) were tested in the ThT fluorescence assay and in the Plg-activation assay. In the fluorescence assay and in the Plg-activation assay, 25 and 100 μg ml^−1 nOVA and dOVA were tested, respectively. TEM images of nOVA and dOVA were taken to check for the presence of large aggregates. […] MSA (#126674, Calbiochem) was dissolved in 8 M urea, 100 mM Tris-HCl pH 8.2, at 10 mg ml^−1 final concentration.

T2 sequence (P00750 36-562): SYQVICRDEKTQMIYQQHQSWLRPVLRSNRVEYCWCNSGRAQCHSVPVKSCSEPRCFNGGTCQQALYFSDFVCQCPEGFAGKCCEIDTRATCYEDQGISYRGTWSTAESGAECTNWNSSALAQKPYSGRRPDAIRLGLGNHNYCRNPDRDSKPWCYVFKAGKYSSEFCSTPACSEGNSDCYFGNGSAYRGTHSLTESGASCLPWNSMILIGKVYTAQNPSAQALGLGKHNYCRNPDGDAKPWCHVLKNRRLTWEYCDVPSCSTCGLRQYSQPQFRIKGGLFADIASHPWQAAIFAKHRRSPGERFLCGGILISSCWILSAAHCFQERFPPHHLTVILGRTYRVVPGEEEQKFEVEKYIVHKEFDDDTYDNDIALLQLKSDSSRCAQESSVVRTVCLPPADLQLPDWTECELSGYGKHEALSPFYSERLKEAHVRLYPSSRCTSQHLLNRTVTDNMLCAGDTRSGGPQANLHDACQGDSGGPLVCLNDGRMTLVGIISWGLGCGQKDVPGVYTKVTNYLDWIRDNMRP

Regarding gelatin, in “Congo red fluorescence” (stored at 4° C. and 37° C.), the “Congo red fluorescence of gelatin” value is “enhanced Congo red fluorescence in a storage temperature dependent manner”. For the same substance, the “enhancement of Congo red fluorescence” value in the series “Congo red fluorescence” (therapeutics stored at 4° C.) was “enhanced the fluorescence of Congo red”. In addition, the “factor XII activation by gelatin” value at factor XII (kept at 37° C.) is given as “activated factor XII”. Moreover, on factor XII (stored at 4° C.), the “factor XII/prekallikrein activation by protein therapeutics” value is “not”. Moreover, on tPA [1], the “binding of tPA to immobilized therapeutic” value is recorded as “binding of tPA was established”.

For “Infliximab: human-murine chimeric monoclonal antibody (Remicade-infliximab)”, in the series with tPA [2], the “tPA activation Max. Activation (%)” value is 0%. Also, the “Fluorescence (a.u. +/− SD) CR” value in “Congo red fluorescence” (marketed biopharmaceutical within expiry limits, five μL tested) is 67 +/− 2 a.u. The “amyloid-like properties after exposure to harsh denaturing conditions (low pH, heat)” value (shortened to “amyloid-like properties after exposure”) in series [3] was “amyloid-like properties are adopted”. Besides, the “Fluorescence (a.u. +/− SD) ThT” value in series [4] is listed as 19 +/− 1 a.u.

As for Etanercept, at tPA [2], the “tPA activation Max. Activation (%)” value amounted to 0%. The “tPA activating potential of native and denatured glucagon and Etanercept” value at tPA [5] is “induces some tPA activation”. In series [3], the “amyloid-like properties after exposure” value is given as “amyloid-like properties are adopted”. Besides, the “ThT fluorescence enhancement of native and denatured proteins” value in series [4] (25 μg ml^−1) is reported as “gave some ThT fluorescence enhancement”. In series [4], the “Fluorescence (a.u. +/− SD) ThT” value is 23 +/− 3 a.u.

In the case of “Glucagon: human glucagon (Glucagen, Novo Nordisk)”, the “tPA activation Max. Activation (%)” value with tPA [2] was 11.25%. In addition, in the series with tPA [5], the “tPA activating potential of native and denatured glucagon and Etanercept” value is listed as “has some tPA activating potential”. Moreover, the “amyloid-like properties after exposure” value in series [3] is recorded as “amyloid-like properties are adopted”. Besides, the “Fluorescence (a.u. +/− SD) ThT” value in series [4] is listed as 48 +/− 1 a.u.
